Earlier results as cited in paper PMC4365979.

Biological target: Rab11 (Homo sapiens) (UniProt P62491)
Sequence of UniProt P62491 (P62491 2-213): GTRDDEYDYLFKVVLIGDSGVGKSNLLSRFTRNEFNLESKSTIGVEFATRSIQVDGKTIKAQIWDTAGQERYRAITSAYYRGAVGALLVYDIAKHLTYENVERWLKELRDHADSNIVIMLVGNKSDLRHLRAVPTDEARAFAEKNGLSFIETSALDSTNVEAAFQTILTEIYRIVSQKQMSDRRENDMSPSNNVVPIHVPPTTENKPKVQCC

Rab11-FIP1/RCP (from UniProt Q6WKZ4)
Kd: 50 nM
